Measured values reported in US12723248 (Amgen, dated 2026).

Biological target: T1, human asialoglycoprotein receptor 1 (ASGR1) (human, UniProt P07306 1-291)
T1 construct: whole, on cells; The cells were fixed in formaldehyde before staining; also called hASGR1; HL-1
T1 sequence (looked up): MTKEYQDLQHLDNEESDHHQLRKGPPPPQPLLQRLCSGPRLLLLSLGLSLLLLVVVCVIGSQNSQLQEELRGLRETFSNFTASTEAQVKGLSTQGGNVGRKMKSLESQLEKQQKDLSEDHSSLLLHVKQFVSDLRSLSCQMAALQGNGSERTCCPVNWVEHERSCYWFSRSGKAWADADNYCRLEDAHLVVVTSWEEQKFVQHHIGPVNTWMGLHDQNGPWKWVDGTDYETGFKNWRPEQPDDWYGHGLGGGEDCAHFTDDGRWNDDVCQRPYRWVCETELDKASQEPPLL
Experiment: immunofluorescence on formaldehyde-fixed Hep3B or HepG2 cells, Alexa488 anti-human IgG secondary, high-content imaging
Description: The siRNA molecules in Tier 1 and Tier 2 screening sets were synthesized without chemical modifications. Each siRNA molecule was comprised of a 21 nucleotide sense strand and 21 nucleotide antisense strand that hybridized to form a duplex region of 19 base pairs with a 2 nucleotide overhang at the 3' end of each strand. The efficacy of each of the siRNA molecules in reducing ASGR1 expression was assessed using a 384-well format in vitro immunoassay, which quantifies levels of ASGR1 protein on the cell surface of Hep3B or HepG2 cells.
Transfection complexes of the siRNA molecules and RNAiMax transfection reagent (Life Technologies) in EMEM media (ATCC 30-2003) were prepared in 384-well plates in accordance with manufacturer's recommendations. Human hepatocellular carcinoma Hep3B (ATCC HB-8064) or HepG2 (ATCC HB-8065) cells in EMEM media supplemented with 10% fetal bovine serum and 1% antibiotic/antimycotic were added to each well. Cells were incubated for 4 days at 37° C. and 5% CO_2. […] Data was analyzed using Columbus image analysis software and GeneData Screener software to quantify several measures of ASGR1 protein levels, cell count, and cell morphology on a per cell and per well basis.

B1: anti-ASGR1 primary antibody (Amgen clone 7E11) (antibody, human IgG1, kappa, N297G, V domains shown)
VH: QVQLVESGGGVVQPGRSLRLSCAASGFTFSSFGMHWVRQAPGKGLEWVAIIWHDGSNKYYADSVKGRFTISRDNSKNTLYLQMSSLRAEDTAVYYCARDLSMGGMDVWGQGTTVTVSS
VL: DIQMTQSPSSLSASVGDRVTIACRASQNIISYLNWYQQKPGKAPKFLIYTASSLQSGVPSRFSGSGSGTDFTLTISSLQPEDFAIYYCQQTYSTPLTFGGGTKVEIKR
notes: It was used as a staining reagent and detected with an Alexa488-conjugated anti-human IgG secondary antibody
**Q.** Does B1 bind?
**A.** binds
